Laboratory results: doi:10.1101/2022.11.04.515179

Columns and labels:
[1] = molecular target: OGG1 WT (untagged) (human, UniProt O15527 1-345); test: EMSA
[2] = molecular target: GST-OGG1 G245A (human, UniProt O15527 1-345, G245A); test: EMSA
Sequence of GST-OGG1 G245A (O15527 whole entry G245A): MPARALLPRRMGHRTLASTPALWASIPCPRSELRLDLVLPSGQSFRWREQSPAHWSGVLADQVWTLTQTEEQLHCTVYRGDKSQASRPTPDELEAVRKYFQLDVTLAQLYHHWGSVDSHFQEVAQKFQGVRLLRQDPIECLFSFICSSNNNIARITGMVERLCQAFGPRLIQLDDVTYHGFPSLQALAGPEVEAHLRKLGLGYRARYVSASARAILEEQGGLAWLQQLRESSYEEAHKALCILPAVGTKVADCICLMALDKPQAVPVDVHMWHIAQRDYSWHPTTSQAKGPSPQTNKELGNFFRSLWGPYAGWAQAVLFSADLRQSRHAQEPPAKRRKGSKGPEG

Sequence of OGG1 WT (untagged) (O15527 whole entry): as the sequence (O15527 whole entry G245A) above, with A245G counted along it

Binder	binding result [1]	binding result [2]
32P 24-mer 8-oxoG:C (dsDNA, 8-oxoG at position 13 of strand 1) DNA 1: CTGATCGATGACGCCTGACATGAT DNA 2: ATCATGTCAGGCGTCATCGATCAG	binds	
Cy5 34-mer 8-oxoG:C (dsDNA, 8-oxoG at position 16 of strand 1) DNA 1: GGCTTCATCGTTGTCGCAGACCTGGTGGATACCG DNA 2: CGGTATCCACCAGGTCTGCGACAACGATGAAGCC		no binding
